The labels stand for the following.
T1: PF3D7_0420300 D1 (Plasmodium falciparum, UniProt Q8I1N6 1956-2015)
T1 sequence: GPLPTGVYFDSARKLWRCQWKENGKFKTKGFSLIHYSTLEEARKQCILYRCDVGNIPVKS

B1: CACACA_negctrl_site896 (dsDNA)
DNA 1: TGATTAAAAGAGGGAAAAAAAAAAAAAAAAAAAAAA
DNA 2: TTTTTTTTTTTTTTTTTTTTTTCCCTCTTTTAATCA
B2: CACACA_negctrl_site146 (dsDNA)
DNA 1: TTTATAAAAAATTTTTTTTTTTTTTTTTAAATATAT
DNA 2: ATATATTTAAAAAAAAAAAAAAAAATTTTTTATAAA
B3: CACACA_site9348 (dsDNA)
DNA 1: TATATTTTGTTCTTTCCACACACAAATACATATATT
DNA 2: AATATATGTATTTGTGTGTGGAAAGAACAAAATATA
B4: CACACA_site632 (dsDNA)
DNA 1: ATATAATATTAGTGCACACACAAAAATGTACTAAAC
DNA 2: GTTTAGTACATTTTTGTGTGTGCACTAATATTATAT
B5: CACACA_negctrl_site1119 (dsDNA)
DNA 1: ATTTTTTTTTTTTTTTTTTTTTTTTGGAGAAAGAGA
DNA 2: TCTCTTTCTCCAAAAAAAAAAAAAAAAAAAAAAAAT
B6: CACACA_negctrl_site307 (dsDNA)
DNA 1: TATTCTATAAATATATTTTTTTAATTTTTTATTTTA
DNA 2: TAAAATAAAAAATTAAAAAAATATATTTATAGAATA
B7: CACACA_negctrl_site1078 (dsDNA)
DNA 1: TAAATTCTTTAAAACTTTAAAACAAAAAAAAAAAAA
DNA 2: TTTTTTTTTTTTTGTTTTAAAGTTTTAAAGAATTTA
B8: CACACA_site8811 (dsDNA)
DNA 1: TTAAAAATATATATAACACACACATAATATATATAT
DNA 2: ATATATATATTATGTGTGTGTTATATATATTTTTAA
B9: CACACA_negctrl_site1541 (dsDNA)
DNA 1: TGCTAATAATTATTTGTTTAGCAACAAAAAAAAAAA
DNA 2: TTTTTTTTTTTGTTGCTAAACAAATAATTATTAGCA
B10: CACACA_negctrl_site1137 (dsDNA)
DNA 1: ATTATAAAAGAATTTTTTTTTATTTCATTAAAATAT
DNA 2: ATATTTTAATGAAATAAAAAAAAATTCTTTTATAAT
B11: CACACA_negctrl_site1559 (dsDNA)
DNA 1: ATATTAAAATGAAAATATAAAAAAAAAAAAAAAAAA
DNA 2: TTTTTTTTTTTTTTTTTTATATTTTCATTTTAATAT
B12: CACACA_site319 (dsDNA)
DNA 1: TATGTAACCTGTTTTACACACCCCCACCCCCCTCTT
DNA 2: AAGAGGGGGGTGGGGGTGTGTAAAACAGGTTACATA
B13: CACACA_negctrl_site916 (dsDNA)
DNA 1: TTTTTAAATAACCTATATATTATTATGAAACATAAA
DNA 2: TTTATGTTTCATAATAATATATAGGTTATTTAAAAA
B14: CACACA_negctrl_site1696 (dsDNA)
DNA 1: TTCCTTCAAAATTTAAGTAATAAGATAAAAATATAA
DNA 2: TTATATTTTTATCTTATTACTTAAATTTTGAAGGAA
B15: CACACA_site2222 (dsDNA)
DNA 1: GGAAAAAATATATGCACACCCCCCAAAAAAAAAAAA
DNA 2: TTTTTTTTTTTTGGGGGGTGTGCATATATTTTTTCC
B16: CACACA_site9117 (dsDNA)
DNA 1: AAAAAAAAAAAAAAAACACACATACACCCCCACCCA
DNA 2: TGGGTGGGGGTGTATGTGTGTTTTTTTTTTTTTTTT
B17: CACACA_negctrl_site1218 (dsDNA)
DNA 1: TAATTTTTTTTTTTTTTTTTTTTTTTTTTTTTTTTA
DNA 2: TAAAAAAAAAAAAAAAAAAAAAAAAAAAAAAAATTA
B18: CACACA_negctrl_site29 (dsDNA)
DNA 1: TTTTTTTTTTTTTTTTTTTTTTTGCTCAGTGTGGTA
DNA 2: TACCACACTGAGCAAAAAAAAAAAAAAAAAAAAAAA
B19: CACACA_negctrl_site1120 (dsDNA)
DNA 1: TCTCAAAAAAAAAAAAAAAAAAAAAAATTAAAAAAT
DNA 2: ATTTTTTAATTTTTTTTTTTTTTTTTTTTTTTGAGA
B20: CACACA_negctrl_site27 (dsDNA)
DNA 1: TTTTTTGGGTAAAATTATAAAATATGTATATATAAA
DNA 2: TTTATATATACATATTTTATAATTTTACCCAAAAAA
B21: CACACA_negctrl_site1638 (dsDNA)
DNA 1: ACATGTATACTTTTTACGAAAAAAAAAAAAAAAAAA
DNA 2: TTTTTTTTTTTTTTTTTTCGTAAAAAGTATACATGT
B22: CACACA_negctrl_site1405 (dsDNA)
DNA 1: ATGAAAAAAAAAAAAAAAAAAAAAAAAAAAAAAAAA
DNA 2: TTTTTTTTTTTTTTTTTTTTTTTTTTTTTTTTTCAT
B23: CACACA_site6664 (dsDNA)
DNA 1: CATATATTTTGAAACACACACATATAAAATATACAT
DNA 2: ATGTATATTTTATATGTGTGTGTTTCAAAATATATG
B24: CACACA_site6737 (dsDNA)
DNA 1: TAAAAAATAAAATACACACACATATTTATATTTATA
DNA 2: TATAAATATAAATATGTGTGTGTATTTTATTTTTTA
B25: CACACA_site2206 (dsDNA)
DNA 1: AAAAAAAACACGCGCACACACACACCCACCCACCGA
DNA 2: TCGGTGGGTGGGTGTGTGTGTGCGCGTGTTTTTTTT
B26: CACACA_negctrl_site1508 (dsDNA)
DNA 1: TTTTACTCTTAAAATAATAAAAAATATTCACATTTA
DNA 2: TAAATGTGAATATTTTTTATTATTTTAAGAGTAAAA
B27: CACACA_negctrl_site392 (dsDNA)
DNA 1: TGGTCTTTTAAACAAAAATATAAATTTTTAAATATG
DNA 2: CATATTTAAAAATTTATATTTTTGTTTAAAAGACCA
B28: CACACA_site8226 (dsDNA)
DNA 1: TGATAACCTAATAATACACACACATGAATATATATA
DNA 2: TATATATATTCATGTGTGTGTATTATTAGGTTATCA
B29: CACACA_negctrl_site412 (dsDNA)
DNA 1: ATAAAAAGGTTTAAAAAAAAAAAAAAAAAAAAAAAA
DNA 2: TTTTTTTTTTTTTTTTTTTTTTTTAAACCTTTTTAT
B30: CACACA_negctrl_site558 (dsDNA)
DNA 1: TTTTTTATATTAAATGAAGAATATACAAAATTTTAA
DNA 2: TTAAAATTTTGTATATTCTTCATTTAATATAAAAAA

The series addresses T1, PF3D7_0420300 D1. Nature of the series: gcPBM; about 25 ug protein; PBS, 1% milk, 0.2 mg/ml BSA, salmon testes DNA, 0.03% Triton X-100. The following applies: tags: N-terminal GST (pGEX-4T-1), kept; label: surface-attached array probe.
As to B1, the binding signal was 8.33 ln median PBM intensity, better of two orientations.
In the case of B2 it was 8.66 ln median PBM intensity, better of two orientations; in that of B3, 9.82 ln median PBM intensity, better of two orientations; in that of B4, 9.79 ln median PBM intensity, better of two orientations.
For the molecule B5, the binding signal is 8.63 ln median PBM intensity, better of two orientations.
The value for B6 was 8.77 ln median PBM intensity, better of two orientations; that for B7 was 8.74 ln median PBM intensity, better of two orientations.
The value for B8 was 9.8 ln median PBM intensity, better of two orientations.
In the case of B9 it was 8.69 ln median PBM intensity, better of two orientations; in that of B10, 8.74 ln median PBM intensity, better of two orientations; in that of B11, 8.43 ln median PBM intensity, better of two orientations.
With B12, the binding signal is 10.7 ln median PBM intensity, better of two orientations.
In the case of B13 it was 8.75 ln median PBM intensity, better of two orientations; in that of B14, 8.8 ln median PBM intensity, better of two orientations.
The value for B15 was 10.7 ln median PBM intensity, better of two orientations; that for B16 was 10.7 ln median PBM intensity, better of two orientations.
In the case of B17 it was 8.72 ln median PBM intensity, better of two orientations; in that of B18, 8.55 ln median PBM intensity, better of two orientations; in that of B19, 8.78 ln median PBM intensity, better of two orientations.
As to B20, the binding signal is 8.81 ln median PBM intensity, better of two orientations.
Consider B21, for which the binding signal was 8.58 ln median PBM intensity, better of two orientations.
The value for B22 was 8.53 ln median PBM intensity, better of two orientations; that for B23 was 9.81 ln median PBM intensity, better of two orientations.
For B24, the binding signal is 9.78 ln median PBM intensity, better of two orientations.
The value for B25 was 10.7 ln median PBM intensity, better of two orientations; that for B26 was 8.65 ln median PBM intensity, better of two orientations.
B27: the binding signal was 8.76 ln median PBM intensity, better of two orientations.
The value for B28 was 9.76 ln median PBM intensity, better of two orientations; that for B29 was 8.38 ln median PBM intensity, better of two orientations; that for B30 was 8.73 ln median PBM intensity, better of two orientations.
